Laboratory results taken from patent EP4538285A1.

Biological target: wild-type human PD-1, expressed on cells (PD1-CD28) (human) (UniProt P10747)
Assay: cell-based or functional assay

Chain of wild-type human PD-1, expressed on cells (PD1-CD28) (human) (P10747 other isoform, or with tags, fused parts or gaps limits assumed): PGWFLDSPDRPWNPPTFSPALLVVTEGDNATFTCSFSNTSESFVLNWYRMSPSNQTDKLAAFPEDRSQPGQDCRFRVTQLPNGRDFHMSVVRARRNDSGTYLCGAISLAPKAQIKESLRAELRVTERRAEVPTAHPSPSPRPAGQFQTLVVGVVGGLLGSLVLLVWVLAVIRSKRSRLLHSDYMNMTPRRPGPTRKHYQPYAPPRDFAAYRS

Work on Tilelizumab (antibody) yielded an IL-2 concentration (pg/ml) at 0.8 nM of 432 pg/mL, an IL-2 concentration (pg/ml) at 1.6 nM of 440 pg/mL and an IL-2 concentration (pg/ml) at 3.2 nM of 440 pg/mL. The IL-2 concentration (pg/ml) at 6.4 nM was 56.1 pg/mL, the IL-2 concentration (pg/ml) at 12.8 nM was 36.9 pg/mL and the IL-2 concentration (pg/ml) at 25.6 nM was 47.7 pg/mL. It also gave an IL-2 concentration (pg/ml) at 51.2 nM of 80.5 pg/mL and an IL-2 concentration (pg/ml) at 102.4 nM of 126 pg/mL.
